Columns and labels:
[1] = tested on: let-7g OE CMs; experiment: Whole genome transcriptome profiling (ILLUMINA RNA sequencing) of let-7g OE CMs vs. EV control CMs; assay type: cell-based, human
From the text: To further understand the effects of let-7 OE during cardiomyocyte maturation at a molecular level, the inventors carried out whole genome transcriptome profiling of let-7g OE CMs and corresponding EV control CMs using an ILLUMINA™ RNA sequencing platform. […] Using expression values for the genes that belonged to the 12 pathways (FIG. 1E), the inventors carried out a 2D-PCA comparing let-7g OE CMs and EV control CMs with H7-CMs at day 20 and 1 yr, IMR90iPSC-CMs at 1 yr and 3 month old HFA and HFV samples. […] Further evidence of let-7g directed maturation was observed from known isoform changes accompanying cardiomyocyte maturation, such as shifts in myosin heavy chain (MYH6/MYH7)^29 (FIG. 13). […] Focusing on the 34 differentially spliced genes in common among H7-CM-1yr, let-7 OE and fetal samples (FIG. 4C), the inventors identified the single transcript of each showing the greatest absolute change in proportion between H7-CM day 20 and the above three samples (data not shown). […] The same pattern emerges from analysis of the relative expression levels of all 377 isoforms (data not shown) of these 34 genes again showing that the developmental chronology of the samples is well captured by principal component 1. In short, there are concerted and dynamic changes in splicing during maturation. The fact that both differential splicing and differential expression analyses cluster let-7 OE CMs with H71yr-CM and fetal samples, clearly strengthens the finding that let-7 is critical for maturation.
Total RNAs for HFA and HFV samples were extracted using RNAeasy mini kit (QIAGEN™)^7. Total RNAs for all other samples were extracted with MIRNEASY™ mini kit (QIAGEN™) and were further DNAse treated with DNA-free kit (AMBION™). RNA and Small RNA libraries were prepared independently using TRUSEQ™ library preparation kits (ILLUMINA™) following the manufacturer's protocols. […] Sequence data for miRNAs were analyzed using miRDeep2™ software^8. […] For mRNA sequencing analysis, mRNA reads from samples were mapped to hg19 reference genome using STAR version 2.3.010. BAM files produced by STAR were analyzed with Cufflinks version 2.1.1_11 run in de novo mode. […]
Gene and transcript abundance was estimated using Markov chain Monte Carlo to sample from a hierarchical Bayesian model. […] Under this model, estimates from transcripts with very low data are effectively shrunk towards each other to avoid spuriously highfold-change estimates that can occur when using simple read or fragment count estimates. Expression estimates, measured in transcripts per million (TPM), and adjusted using upper quantile normalization^12, were generated for the Ensembl 74 gene annotation database^13.
Separately, statistical significance of differential expression at the gene level was analyzed using DESeq^14. […]

[2] = tested on: HECT293FT cells; experiment: Lipofectamine transient transfection of plko-let-7g and plko-let-7g-E plasmids, mature let-7g and target expression after 24 hrs; assay type: cell-based; settings: 24 hrs after transfection
Procedure: FIGS. 20A-20B Modified let-7g (let-7g-E) is more efficient in generating mature let-7g in HECT293FT cells. Let-7g and a modified version of let-7g (plko-let-7g-E) were induced in hect 293 FT cells by introducing plko-let-7g and plko-let-7g-E plasmids with lipofectamine transient transfection assay. 24 hrs after transfection, cells were tested for mature let-7g expression. […] (FIG. 20B) Targets of let-7 are repressed when we over-express let-7g-E similar to that seen during over-expression of let-7g.

B1: let-7g: human let-7 family miRNA, SEQ ID NO: 9, overexpressed from pLKO lentiviral pri-miR-let-7g construct (nucleic acid, listed as Homo sapiens)
chain: AGGCUGAGGUAGUAGUUUGUACAGUUUGAGGGUCUAUGAUACCACCCGGUACAGGAGAUAACUGUACAGGCCACUGCCUUGCCA
maturation markers RYR2, MYH7, KCNJ2 expression ([1]; RNA sequencing, compared to EV control): increased expression
FA metabolism (gene expression, density plots) ([1]; in comparison to EV control): significantly up-regulated
PI3/AKT/Insulin signaling (gene expression, density plots) ([1]; in comparison to EV control): significantly down-regulated
position in dimension 1 of 2D-PCA (genes of 12 pathways) ([1]; vs. H7-CMs day 20 and 1 yr, EV control): closer to 1 yr than the EV and day 20 CMs
Targets of let-7 expression [2]: repressed

Source: patent US9624471B2, “Methods for maturing cardiomyocytes and uses thereof” (UNIVERSITY OF WASHINGTON THROUGH ITS CENTER FOR …, priority 2013, dated 2017)
